Substitutions are numbered along the chain they refer to. Where two headings read alike, the source gives them in different places. Blank lines part the entries; values can stand above or below the binder they belong to.
Tests used:
[1] = target: T1, human SIRPα on cells (human, UniProt P78324 31-504); experiment: flow cytometry
T1 construct: Whole entry

[2] = target: T2, human SIRPβ1 isoform 1 on cells (human, UniProt O00241 30-398); experiment: flow cytometry
T2 construct: On CHO cells (low level), on BWZ/BW5147.G.1.4 cells (reporter cells co-express human DAP12) or on primary human myeloid cells; also called huSIRPβ1; BWZ-huSIRPβ1

[3] = target: T3, mouse SIRPβ1 on CHO cells (mouse); experiment: flow cytometry
T3 construct: Whole entry
T3 chain: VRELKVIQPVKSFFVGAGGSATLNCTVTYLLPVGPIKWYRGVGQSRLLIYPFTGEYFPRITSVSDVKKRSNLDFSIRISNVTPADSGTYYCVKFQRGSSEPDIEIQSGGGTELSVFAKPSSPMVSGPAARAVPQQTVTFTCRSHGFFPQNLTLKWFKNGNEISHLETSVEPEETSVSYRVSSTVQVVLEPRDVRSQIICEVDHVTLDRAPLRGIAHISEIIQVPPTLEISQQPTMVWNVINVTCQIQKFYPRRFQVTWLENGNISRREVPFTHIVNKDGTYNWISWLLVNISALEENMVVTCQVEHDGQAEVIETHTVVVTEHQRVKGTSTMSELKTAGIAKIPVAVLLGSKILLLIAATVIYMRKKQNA

[4] = target: T2, human SIRPβ1 isoform 1 on cells; experiment: cell binding titration; target not given
[5] = target: T1, human SIRPα on cells; experiment: flow cytometry; remark: listed apart in the source
[6] = target: T3, mouse SIRPβ1 on CHO cells; experiment: flow cytometry
[7] = target: T4, human SIRPα domain 1 (D1) Fc fusion (human, UniProt P78324 32-149); experiment: Octet, IgG avid
T4 construct: also called human SIRPα D1-Fc; Human SIRPα Fc; not shown: C-terminal human IgG1 Fc

[8] = target: T5, Soluble, human SIRPβ1-Fc isoform 1 (O00241) (human, UniProt O00241 30-371, limits assumed); experiment: ELISA, antigen coated
T5 construct: Whole entry named; also called human SIRPβ1 isoform 1
Description: Recombinant antigen based on the sequence of SIRPβ1 isoform 1 was used for selecting anti-SIRPβ1 antibodies from yeast library pools. To ascertain if the selected anti-SIRPβ1 antibodies cross-reacted with other isoforms of human SIRPβ1 or with cynomolgus SIRPβ1, recombinant antigens based on human SIRPβ1 isoform 3 sequence and cynomolgus SIRPβ1 isoform 1 sequence were produced by transient transfection in HEK293 cells. Purified, Fc-tagged recombinant proteins were adsorbed onto 96-well plates at 1 μg/mL overnight at 4° C. Plates were subsequently washed with PBS+0.05% Tween-20 and blocked with 1% BSA+PBS for 2 hours at room temperature. Antibodies diluted in blocking buffer at 1 μg/mL were added to wells, serially diluted, and allowed to bind antigen overnight at 4° C. The following day, the primary antibodies were removed and anti-human kappa light chain antibody conjugated to horseradish peroxidase diluted 1:10,000 in blocking buffer were added to wells and incubated for 1 hour at room temperature. Plates were washed with PBS+0.05% Tween-20 and 100 μL of TMB substrate solution was added to wells to generate a colorimetric signal proportional to amount of anti-SIRPβ1 antibody bound to antigen. Once the reaction reached an appropriate color intensity, 100 μL of Stop solution was added to quench the enzyme.
(§1) Eight anti-SIRPβ1 antibodies (four parental antibodies and four corresponding affinity matured antibodies) were selected for analysis.

[9] = target: T6, human SIRPβ1 domain 1 (D1) Fc fusion (human, UniProt O00241 30-148); experiment: Octet, Fab monovalent
T6 construct: Made in HEK293/T cells with a heterologous signal peptide; also called Human SIRPβ1 D1-Fc; Human SIRPβ1-Fc; not shown: C-terminal human IgG1 Fc

[10] = target: T6, human SIRPβ1 domain 1 (D1) Fc fusion; experiment: Octet, Fab monovalent; remark: listed apart in the source
Protocol: (§2) Briefly, Octet affinity measurements were performed by loading IgGs on-line onto AHQ sensors. Sensors were equilibrated off-line in assay buffer for 30 min and then monitored on-line for 60 seconds for baseline establishment. For avid binding measurement, sensors with loaded IgGs were exposed to 100 nM antigen (human SIRPα domain 1 (D1) Fc fusion or SIRPβ1 domain 1 (D1) Fc fusion) for 3 min, and then transferred to assay buffer for 3 min for off-rate measurement. Additional avid binding was determined by loading biotinylated SIRPβ1 monomer on SA sensors and exposing to 100 nM IgG in solution. Monovalent binding measurements were obtained by loading human SIRPα- or SIRPβ1-Fc fusion antigens onto AHQ sensor, followed by exposure to 100 nM anti-SIRPβ1 antibody Fab. Additional monovalent measurements were made by loading biotinylated human SIRPα or SIRPβ1 monomer to SA sensor followed by exposure to 100 nM Fab in solution. Kinetics data were fit using a 1:1 binding model in the data analysis software provided by ForteBio (ForteBio Data Analysis Software 7.0).

[11] = target: T7, human SIRPβ1-Fc isoform 3 (Q5TFQ8) (human, UniProt Q5TFQ8 30-371, limits assumed); experiment: ELISA on plate-coated huSirpB-Fc (Q5TFQ8.1), anti-human kappa-HRP, A450
T7 construct: Whole entry named; made in HEK293 cells; also called human SIRPβ1 isoform 3
Protocol: To ascertain if the selected anti-SIRPβ1 antibodies cross-reacted with other isoforms of human SIRPβ1 or with cynomolgus SIRPβ1, recombinant antigens based on human SIRPβ1 isoform 3 sequence and cynomolgus SIRPβ1 isoform 1 sequence were produced by transient transfection in HEK293 cells. Purified, Fc-tagged recombinant proteins were adsorbed onto 96-well plates at 1 μg/mL overnight at 4° C. Plates were subsequently washed with PBS+0.05% Tween-20 and blocked with 1% BSA+PBS for 2 hours at room temperature. Antibodies diluted in blocking buffer at 1 μg/mL were added to wells, serially diluted, and allowed to bind antigen overnight at 4° C. The following day, the primary antibodies were removed and anti-human kappa light chain antibody conjugated to horseradish peroxidase diluted 1:10,000 in blocking buffer were added to wells and incubated for 1 hour at room temperature. Plates were washed with PBS+0.05% Tween-20 and 100 μL of TMB substrate solution was added to wells to generate a colorimetric signal proportional to amount of anti-SIRPβ1 antibody bound to antigen. Once the reaction reached an appropriate color intensity, 100 μL of Stop solution was added to quench the enzyme.
as §1

[12] = target: T1, human SIRPα on cells; experiment: flow cytometry; remark: listed apart in the source
[13] = target: T8, mouse SIRPα on cells (mouse, UniProt P97797 32-513); experiment: flow cytometry;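 as to FOB: antibodies tested at 1 µg/ml for 30 min on ice against receptor-expressing cells, detected with a PE-labelled secondary antibody, read as mean fluorescence intensity relative to background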
T8 construct: whole, on cells
T8 sequence (looked up): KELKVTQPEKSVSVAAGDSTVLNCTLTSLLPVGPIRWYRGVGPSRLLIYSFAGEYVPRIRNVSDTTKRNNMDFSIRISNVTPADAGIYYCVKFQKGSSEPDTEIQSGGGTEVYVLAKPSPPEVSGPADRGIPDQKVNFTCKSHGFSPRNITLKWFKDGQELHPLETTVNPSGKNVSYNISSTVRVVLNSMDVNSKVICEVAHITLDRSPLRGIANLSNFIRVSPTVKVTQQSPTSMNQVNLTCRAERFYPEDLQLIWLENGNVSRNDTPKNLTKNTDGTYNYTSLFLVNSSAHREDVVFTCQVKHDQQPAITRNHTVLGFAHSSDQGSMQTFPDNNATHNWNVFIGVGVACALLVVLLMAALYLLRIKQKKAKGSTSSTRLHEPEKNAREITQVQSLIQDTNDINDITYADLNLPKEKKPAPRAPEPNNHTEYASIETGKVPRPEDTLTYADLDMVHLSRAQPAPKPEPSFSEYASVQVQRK

[14] = target: T2, human SIRPβ1 isoform 1 on cells; experiment: flow cytometry; remark: listed apart in the source
[15] = target: T3, mouse SIRPβ1 on CHO cells; experiment: flow cytometry
[16] = target: T8, mouse SIRPα on cells; experiment: flow cytometry; remark: listed apart in the source;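 as to FOB: antibodies tested at 1 µg/ml for 30 min on ice against receptor-expressing cells, detected with a PE-labelled secondary antibody, read as mean fluorescence intensity relative to background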
[17] = target: T9, mouse SIRPα D1-Fc (mouse, UniProt P97797 32-150, limits assumed); experiment: Octet
T9 construct: domain: D1
T9 sequence (looked up): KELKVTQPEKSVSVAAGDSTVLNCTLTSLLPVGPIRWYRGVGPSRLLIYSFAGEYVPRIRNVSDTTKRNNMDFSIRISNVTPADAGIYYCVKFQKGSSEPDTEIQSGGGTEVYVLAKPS
Protocol: as §2

[18] = target: T6, human SIRPβ1 domain 1 (D1) Fc fusion; experiment: Octet, IgG avid
[19] = target: T2, human SIRPβ1 isoform 1 on cells; experiment: flow cytometry titration, BWZ-huSIRPβ1 cells
Protocol: (§3) In these experiments, two antibodies previously described were used as positive controls: antibody 18D5 (an anti-SIRPβ antibody that cross-reacts with SIRPα and SIRPβ) and antibody KWAR23 (an anti-SIRPβ antibody that cross-reacts with SIRPα, SIRPβ, and SIRPγ). These antibodies were recombinantly produced on a human IgG4 backbone. […] Serial dilutions of each of the anti-SIRPβ1 monoclonal antibodies and control antibodies were added to 10⁵ cells and allowed to achieve binding equilibrium at 4° C. After addition of fluorescently-labeled secondary antibody and brief washing steps, MFI values as a function of titrated antibody concentration were recorded via FACS analysis.
In Table 14 below, EC50 values assign relative affinity by adding increasing concentrations of antibody variants to cells overexpressing SIRPβ 1. Receptor bound antibodies were detected by staining cells with anti-human IgG PE secondary antibody (Southern Biotech). Curves were fit using nonlinear regression analysis with Graphpad Prism 6 software.

[20] = target: T1, human SIRPα on cells; experiment: flow cytometry on BWZ cells overexpressing human SIRPα, fluorescent secondary antibody, MFI
Protocol: To determine antigen specificity of anti-SIRPβ1 antibodies of the present disclosure, cell-based affinity measurements were performed to ascertain the apparent affinities of affinity-matured anti-SIRPβ 1 antibodies to cell surface-expressed antigen. BW5147.G.1.4 cells, an immortalized mouse T-cell line, were engineered to overexpress human SIRPβ1 (BWZ-huSIRPβ1) or human SIRPα (BWZ-huSIRPα). Jurkat cells, an immortalized human T cell line, endogenously express SIRPγ.
as §3
Receptor bound antibodies were detected by staining cells with anti-human IgG PE secondary antibody (Southern Biotech). Curves were fit using nonlinear regression analysis with Graphpad Prism 6 software.

T5 sequence (O00241 30-371 limits assumed, one chain of several): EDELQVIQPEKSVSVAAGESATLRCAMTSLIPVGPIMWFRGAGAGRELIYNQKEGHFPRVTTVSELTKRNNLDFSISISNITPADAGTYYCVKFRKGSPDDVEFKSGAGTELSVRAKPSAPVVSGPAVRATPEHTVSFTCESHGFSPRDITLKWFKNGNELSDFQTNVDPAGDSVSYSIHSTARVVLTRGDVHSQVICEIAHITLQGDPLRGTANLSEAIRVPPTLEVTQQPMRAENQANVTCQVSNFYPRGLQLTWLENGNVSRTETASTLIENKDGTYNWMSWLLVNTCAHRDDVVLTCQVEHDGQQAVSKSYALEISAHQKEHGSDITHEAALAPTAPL
T2 sequence (O00241 30-398): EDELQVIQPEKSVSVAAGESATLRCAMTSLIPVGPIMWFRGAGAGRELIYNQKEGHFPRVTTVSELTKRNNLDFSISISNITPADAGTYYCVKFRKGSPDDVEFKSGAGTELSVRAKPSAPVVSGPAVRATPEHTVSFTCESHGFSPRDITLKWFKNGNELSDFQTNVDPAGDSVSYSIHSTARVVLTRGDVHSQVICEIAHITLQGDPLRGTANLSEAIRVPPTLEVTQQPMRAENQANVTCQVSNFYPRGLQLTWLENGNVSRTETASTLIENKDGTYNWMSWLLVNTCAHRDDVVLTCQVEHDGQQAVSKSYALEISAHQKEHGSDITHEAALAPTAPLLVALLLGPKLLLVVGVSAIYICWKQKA
T6 sequence (O00241 30-148 limits assumed): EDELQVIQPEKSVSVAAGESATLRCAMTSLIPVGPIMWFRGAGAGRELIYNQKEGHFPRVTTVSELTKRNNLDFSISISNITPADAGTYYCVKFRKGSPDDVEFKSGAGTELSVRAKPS
T7 sequence (Q5TFQ8 30-371 limits assumed, one chain of several): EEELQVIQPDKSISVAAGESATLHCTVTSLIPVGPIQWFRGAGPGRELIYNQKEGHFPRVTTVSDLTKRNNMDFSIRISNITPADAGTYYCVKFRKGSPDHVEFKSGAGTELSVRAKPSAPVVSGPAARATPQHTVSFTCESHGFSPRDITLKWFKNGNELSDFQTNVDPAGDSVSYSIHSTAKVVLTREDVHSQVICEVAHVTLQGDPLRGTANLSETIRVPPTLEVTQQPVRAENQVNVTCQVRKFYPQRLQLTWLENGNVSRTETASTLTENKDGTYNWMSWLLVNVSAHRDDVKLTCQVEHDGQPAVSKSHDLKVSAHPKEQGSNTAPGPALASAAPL

FOB [1]: 1 fold over background
FOB [2]: 5 fold over background
FOB [3]: 2 fold over background
EC50 [4]: 0.715 nM
binding result [5]: no binding (tested: 1 ug/ml)
binding result [6]: no binding (tested: 1 ug/ml)
binding result [7]: no binding (tested: 100 nM)
EC50 [8]: 0.025 nM
B1: SB-40-21 (antibody, V domains shown)
VH: QVQLVQSGAEVKKPGASVKVSCKASGYTFTSYYMVWVRQAPGQGLEWMGIINPSSGDTNYAQKFQGRVTMTRDTSISTAYMELSRLRSDDTAVYYCARDTGEYSYSPHGMDVWGQGTTVTVSS
VL: EIVLTQSPATLSLSPGERATLSCRASQSVSSYLAWYQQKPGQAPRLLIYDSSNRATGIPARFSGSGSGTDFTLTISSLEPEDFAVYYCQQRDEHPPWTFGGGTKVEIK
notes: IgG

Kd [9]: 918 nM
Kd [10]: 427 nM
B2: SB-40 Fab (Fab, V domains shown)
VH: B1 VH with V35S, S55G, D57S, N59S, I76T, A79V, R85S, D89E
VL: B1 VL
notes: Fab by papain digestion

Kd [10]: 246 nM
B3: SB-17 Fab (Fab, V domains shown)
VH: QVQLVQSGAEVKKPGASVKVSCKASGYTFTSYGISWVRQAPGQGLEWMGWISAYNGNTNYAQKLQGRVTMTTDTSTSTAYMELRSLRSDDTAVYYCARGPLLYGDYHVRYGMDVWGQGTTVTVSS
VL: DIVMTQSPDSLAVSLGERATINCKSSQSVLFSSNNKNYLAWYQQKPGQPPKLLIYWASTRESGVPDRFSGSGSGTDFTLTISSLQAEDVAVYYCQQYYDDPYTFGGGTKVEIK
notes: Fab by papain digestion

binding result [11]: no binding (tested: 1 ug/mL)
FOB [1]: 1 fold over background
FOB [2]: 4 fold over background
FOB [3]: 1 fold over background
EC50 [4]: 0.059 nM
binding result [5]: no binding (tested: 1 ug/ml)
binding result [6]: no binding (tested: 1 ug/ml)
binding result [7]: no binding (tested: 100 nM)
EC50 [8]: 0.045 nM
B4: SB-1-2 (antibody, V domains shown)
VH: QVQLVESGGGVVQPGRSLRLSCAASGFTFGSFGMNWVRQAPGKGLEWVSAITASGGSTFYADSVKGRFTISRDNSKNTLYLQMNSLRAEDTAVYYCAKDFTEVVGWLGMDVWGQGTTVTVSS
VL: EIVMTQSPGTLSLSPGERATLSCRASQSVSSSYLAWYQQKPGQAPRLLIYGASSRATGIPDRFSGSGSGTDFTLTISRLEPEDFAVYYCQLLGSSPRTFGGGTKVEIK
notes: IgG

Kd [9]: 172 nM
Kd [10]: 97.9 nM
B5: SB-1 Fab (Fab, V domains shown)
VH: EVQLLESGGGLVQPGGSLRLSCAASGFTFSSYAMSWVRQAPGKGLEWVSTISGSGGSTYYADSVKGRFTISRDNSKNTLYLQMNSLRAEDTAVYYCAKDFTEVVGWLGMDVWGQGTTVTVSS
VL: B4 VL
notes: Fab by papain digestion

Kd [9]: 977 nM
Kd [10]: 266 nM
B6: SB-2 Fab (Fab, V domains shown)
VH: QVQLVESGGGVVQPGRSLRLSCAASGFTFSSYGMNWVRQAPGKGLEWVAVIWYDGSNKYYADSVKGRFTISRDNSKNTLYLQMNSLRAEDTAVYYCARDQTAAAAIWGMDVWGQGTTVTVSS
VL: B4 VL with M4L, L91Q, L92S, G93S, S95H, R97F
notes: Fab by papain digestion

binding result [11]: no binding (tested: 1 ug/mL)
FOB [1]: 1 fold over background
FOB [2]: 5 fold over background
FOB [3]: 1 fold over background
EC50 [4]: 0.132 nM
binding result [5]: no binding (tested: 1 ug/ml)
binding result [6]: no binding (tested: 1 ug/ml)
binding result [7]: no binding (tested: 100 nM)
EC50 [8]: 0.029 nM
B7: SB-2-7 (antibody, V domains shown)
VH: EVQLLESGGGLVQPGGSLRLSCAASGFTFARYGMHWVRQAPGKGLEWVSAISGLAGPTYADSVKGRFTISRDNSKNTLYLQMNSLRAEDTAVYYCARDQTAAAAIWGMDVWGQGTTVTVSS
VL: B4 VL with I2V, M4L, L91Q, L92S, G93S, S95H, R97F
notes: IgG

binding result [11]: no binding (tested: 1 ug/mL)
FOB [1]: 1 fold over background
FOB [2]: 2 fold over background
FOB [3]: 2 fold over background
EC50 [4]: 0.441 nM
FOB [12]: 2.1 fold over background
FOB [13]: 1.2 fold over background
FOB [14]: 4.1 fold over background
FOB [15]: 1.7 fold over background
binding result [16]: no binding (tested: 1 ug/ml)
binding result [6]: no binding (tested: 1 ug/ml)
binding result [17]: no binding (tested: 100 nM)
EC50 [8]: 0.022 nM
Kd [18]: 2.72 nM
B8: SB-8 (antibody, V domains shown)
VH: QVQLQESGPGLVKPSETLSLTCAVSGYSISSGYYWGWIRQPPGKGLEWIGSIYHSGSTYYNPSLKSRVTISVDTSKNQFSLKLSSVTAADTAVYYCARGGAMTPAGMDVWGQGTTVTVSS
VL: B4 VL with S54N, L91Q, L92V, G93Y, R97Y
notes: IgG; also called SB-8 (p)

Kd [9]: 151 nM
Kd [10]: 126 nM
B9: SB-8 Fab (Fab, V domains shown)
VH: B8 VH
VL: B4 VL with S54N, L91Q, L92V, G93Y, R97Y
notes: Fab by papain digestion

Kd [10]: 678 nM
B10: SB-11 Fab (Fab, V domains shown)
VH: QVQLVQSGAEVKKPGSSVKVSCKASGGTFSNYAISWVRQAPGQGLEWMGGIIPIFGTANYAQKFQGRVTITADESTSTAYMELSSLRSEDTAVYYCARPVDSSSYSLGYYYGMDVWGKGTTVTVSS
VL: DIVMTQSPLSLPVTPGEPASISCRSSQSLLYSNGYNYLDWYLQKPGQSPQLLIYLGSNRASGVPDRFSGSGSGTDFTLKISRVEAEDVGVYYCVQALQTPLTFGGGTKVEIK
notes: Fab by papain digestion

EC50 [19]: 0.477 nM
EC50 (read off the curve) [20]: ~0.2 nM
B11: 18D5 (antibody, V domains shown)
VH: QVQLQQPGAELVRPGSSVKLSCKASGYTFTSYWVHWVKQRPIQGLEWIGNIDPSDSDTHYNQKFKDKASLTVDKSSSTAYMQLSSLTFEDSAVYYCVRGGTGTMAWFAYWGQGTLVTVSA
VL: DVVMTQTPLSLPVSLGDQASISCRSSQSLVHSYGNTYLYWYLQKPGQSPKLLIYRVSNRFSGVPDRFSGSGSGTDFTLKISRVEAEDLGVYFCFQGTHVPYTFGSGTKLEIK

Kd [10]: 407 nM
B12: SB-15 Fab (Fab, V domains shown)
VH: QLQLQESGPGLVKPSETLSLTCTVSGGSISSNSYYWGWIRQPPGKGLEWIGSIYYSGSTYYNPSLKSRVTISVDTSKNQFSLKLSSVTAADTAVYYCAREVGAPPSYPFDIWGQGTMVTVSS
VL: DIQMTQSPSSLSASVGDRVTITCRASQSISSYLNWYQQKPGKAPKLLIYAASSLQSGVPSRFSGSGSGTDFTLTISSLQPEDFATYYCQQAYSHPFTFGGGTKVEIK
notes: Fab by papain digestion

From patent publication US20250026827A1 (Alector, published 2025)
